# Source: publication PMC5951591, “Transcriptional repression by ApiAP2 factors is central to chronic toxoplasmosis”
# B1: PBM motif validation probe (WT, 59 bp) (dsDNA)
# DNA 1: TTTGTAATATACGCTCCACCGCGTGCACCCCCCTCGACATGCCCCCGTATTGCTGATCG
# DNA 2: CGATCAGCAATACGGGGGCATGTCGAGGGGGGTGCACGCGGTGGAGCGTATATTACAAA
# B2: PBM motif validation, unlabeled poly(dC) competitor (dsDNA)
# DNA 1: B1 DNA 1
# DNA 2: B1 DNA 2
# B3: PBM scrambled cold competitor (60 bp) (dsDNA)
# DNA 1: TACCCTGCCTCTTGTAGTAGTAACGTAAAAGAGGTAACGTGGTCAAATGCGATCAGAGAT
# DNA 2: ATCTCTGATCGCATTTGACCACGTTACCTCTTTTACGTTACTACTACAAGAGGCAGGGTA
# Tests used:
# GST-AP2IV-4 (AP2 domain) [1] = target: T1, GST-AP2IV-4 (AP2 domain) (Toxoplasma gondii, UniProt S8FCP8 782-854); experiment: EMSA; 50 ng protein, 20 fmol probe; EMSA: 20 fmol probe, 50 ng protein, 6% PAGE, LightShift Chemiluminescent EMSA kit; buffer, salt, pH and temperature not stated; conditions: protein: recombinant; tags: GST (N-terminal, pGEX4T3); label: 5'-biotin; blunt
# GST-AP2IV-4 (AP2 domain) [2] = target: T1, GST-AP2IV-4 (AP2 domain); experiment: competition; 300x excess unlabeled against N1; EMSA: 20 fmol probe, 50 ng protein, 6% PAGE, LightShift Chemiluminescent EMSA kit; buffer, salt, pH and temperature not stated; conditions: protein: recombinant; tags: GST (N-terminal, pGEX4T3); label: none; blunt
# GST-AP2IV-4 (AP2 domain) [3] = target: T1, GST-AP2IV-4 (AP2 domain); experiment: competition; 300x excess unlabeled against N1; did not compete; EMSA: 20 fmol probe, 50 ng protein, 6% PAGE, LightShift Chemiluminescent EMSA kit; buffer, salt, pH and temperature not stated; conditions: protein: recombinant; tags: GST (N-terminal, pGEX4T3); label: none; blunt
binder,measurement,setting,value
B1,binding result,GST-AP2IV-4 (AP2 domain) [1],binds
B2,binding result,GST-AP2IV-4 (AP2 domain) [2],binds
B3,binding result,GST-AP2IV-4 (AP2 domain) [3],no binding
